Experimental data as given in publication PMC4094107 (Nature structural & molecular biology, 2010).
Like-named read-outs stand apart in the source and are kept apart here.

B1: GST-PALB2 truncation 1 (P2T1, amino acids 1-200) (domain or fragment, human, UniProt Q86YC2 1-200, looked up)
chain: MDEPPGKPLSCEEKEKLKEKLAFLKREYSKTLARLQRAQRAEKIKHSIKKTVEEQDCLSQQDLSPQLKHSEPKNKICVYDKLHIKTHLDEETGEKTSITLDVGPESFNPGDGPGGLPIQRTDDTQEHFPHRVSDPSGEQKQKLPSRRKKQQKRTFISQERDCVFGTDSLRLSGKRLKEQEEISSKNPARSPVTEIRTHLL
B3: GST-PALB2 truncation 5 (P2T5, amino acids 853-1186) (domain or fragment, human, UniProt Q86YC2 853-1186, looked up)
chain: GNLQLVSELKNPSGSCSVDVSAMFWERAGCKEPCIITACEDVVSLWKALDAWQWEKLYTWHFAEVPVLQIVPVPDVYNLVCVALGNLEIREIRALFCSSDDESEKQVLLKSGNIKAVLGLTKRRLVSSSGTLSDQQVEVMTFAEDGGGKENQFLMPPEETILTFAEVQGMQEALLGTTIMNNIVIWNLKTGQLLKKMHIDDSYQASVCHKAYSEMGLLFIVLSHPCAKESESLRSPVFQLIVINPKTTLSVGVMLYCLPPGQAGRFLEGDVKDHCAAAILTSGTIAIWDLLLGQCTALLPPVSDQHWSFVKWSGTDSHLLAGQKDGNIFVYHYS

Tests used:
Human RAD51 (purified) = target: T1, Human RAD51 (purified) (human, UniProt Q06609 1-339); assay: pull-down
T1 sequence (looked up): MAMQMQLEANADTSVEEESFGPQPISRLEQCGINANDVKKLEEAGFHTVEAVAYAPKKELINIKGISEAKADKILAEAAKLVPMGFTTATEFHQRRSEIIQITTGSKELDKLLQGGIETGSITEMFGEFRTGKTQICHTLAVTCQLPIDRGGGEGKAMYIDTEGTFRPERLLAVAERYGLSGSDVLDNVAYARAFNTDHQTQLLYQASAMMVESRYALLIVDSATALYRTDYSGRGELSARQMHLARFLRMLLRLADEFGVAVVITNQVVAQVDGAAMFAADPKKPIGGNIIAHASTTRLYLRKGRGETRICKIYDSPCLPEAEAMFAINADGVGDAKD

PALB2 (purified from …) [1] = target: T2, PALB2 (purified from baculovirus-infected Sf9 cells as GST-PALB2-His) (human, UniProt Q86YC2 1-1186); assay: co-IP
T2 sequence (looked up): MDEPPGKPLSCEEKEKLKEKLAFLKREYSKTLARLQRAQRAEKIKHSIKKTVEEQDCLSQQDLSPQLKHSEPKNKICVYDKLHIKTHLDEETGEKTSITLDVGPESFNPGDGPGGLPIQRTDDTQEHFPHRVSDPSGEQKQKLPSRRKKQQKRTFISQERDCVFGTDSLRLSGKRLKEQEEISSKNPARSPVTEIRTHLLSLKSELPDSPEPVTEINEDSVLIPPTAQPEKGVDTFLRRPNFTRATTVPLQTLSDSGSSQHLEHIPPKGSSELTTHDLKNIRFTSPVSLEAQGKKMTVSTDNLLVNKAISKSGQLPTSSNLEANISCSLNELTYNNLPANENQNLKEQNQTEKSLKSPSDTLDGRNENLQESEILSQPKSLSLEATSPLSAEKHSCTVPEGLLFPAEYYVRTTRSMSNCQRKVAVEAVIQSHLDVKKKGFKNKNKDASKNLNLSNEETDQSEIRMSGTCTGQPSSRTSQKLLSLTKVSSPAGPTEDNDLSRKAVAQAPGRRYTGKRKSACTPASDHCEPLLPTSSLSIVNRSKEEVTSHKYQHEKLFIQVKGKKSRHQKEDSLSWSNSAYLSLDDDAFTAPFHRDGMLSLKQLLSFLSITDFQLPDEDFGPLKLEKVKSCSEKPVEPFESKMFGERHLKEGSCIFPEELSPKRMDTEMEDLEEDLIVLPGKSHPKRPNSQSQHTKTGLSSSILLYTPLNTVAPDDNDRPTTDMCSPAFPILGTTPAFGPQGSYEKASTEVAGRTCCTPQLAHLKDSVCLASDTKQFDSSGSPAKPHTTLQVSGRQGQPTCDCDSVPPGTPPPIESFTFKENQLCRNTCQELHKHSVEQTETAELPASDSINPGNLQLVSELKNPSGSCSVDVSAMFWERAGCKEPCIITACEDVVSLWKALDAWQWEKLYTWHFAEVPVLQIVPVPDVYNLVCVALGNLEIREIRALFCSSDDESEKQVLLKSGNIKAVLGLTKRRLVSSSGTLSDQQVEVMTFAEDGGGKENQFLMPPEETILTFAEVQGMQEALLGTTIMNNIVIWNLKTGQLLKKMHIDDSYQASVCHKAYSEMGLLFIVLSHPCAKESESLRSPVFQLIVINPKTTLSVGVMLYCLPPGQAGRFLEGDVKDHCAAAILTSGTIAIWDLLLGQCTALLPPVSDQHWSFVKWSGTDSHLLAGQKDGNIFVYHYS

[2] = target: B1; assay: co-IP
[3] = target: B3; assay: co-IP
PALB2 (purified from …) [4] = target: T2, PALB2 (purified from …); assay: co-IP; remark: listed apart in the source

B1: binds (Human RAD51 (purified)).

B2: BRC3/4-GST polypeptide (BRC3 and BRC4 region of BRCA2, amino acids 1409-1596) (domain or fragment, human, UniProt P51587 1409-1596, looked up)
chain: LTATKTEQNIKDFETSDTFFQTASGKNISVAKESFNKIVNFFDQKPEELHNFSLNSELHSDIRKNKMDILSYEETDIVKHKILKESVPVGTGNQLVTFQGQPERDEKIKEPTLLGFHTASGKKVKIAKESLDKVKNLFDEKEQGTSEITSFSHQWAKTLKYREACKDLELACETIEITAAPKCKEMQN
B2: binds (PALB2 (purified from …) [1]).

B3: binds (Human RAD51 (purified)).

B4: GST-RAD51 truncation 3 (R51T3, amino acids 184-257) (domain or fragment, human, UniProt Q06609 184-257, looked up)
chain: DVLDNVAYARAFNTDHQTQLLYQASAMMVESRYALLIVDSATALYRTDYSGRGELSARQMHLARFLRMLLRLAD
B4: binds [2]; binds [3]; binds (PALB2 (purified from …) [4]).
